Where two headings read alike, the source gives them in different places.
Columns and labels:
[1] = target: the molecule itself; test: SEC
[2] = target: the molecule itself; test: SEC; remark: listed apart in the source

Row | Protein | stoichiometry N [1] | stoichiometry N [2]
1 | Staphylococcus aureus strain Newman CstB, wild-type, full-length (enzyme, UniProt G5ELA4 1-444, looked up) MFFKQFYDNHLSQASYLVGCQRTGEAIIIDPVRDLSKYIEVADSEGLTITQATETHIHADFASGIRDVAKRLNANIYVSGEGEDALGYKNMPSKTQFVKHGDIIQVGNVKLEVLHTPGHTPESISFLLTDLGGGSSVPMGLFSGDFIFVGDIGRPDLLEKSVQIKGSTEISAKQMYESVQNIKNLPDYVQIWPGHGAGSPCGKALGAIPISTIGYEKINNWAFNEIDETKFIESLTSNQPAPPHHFAQMKQVNQFGMNLYQSYDVYPSLDNKRVAFDLRSKEAFHGGHTKGTINIPYNKNFINQIGWYLDFEKDIDLIGDKSTVEKAKHTLQLIGFDKVAGYRLPKSGISTQSVHSADMTGKEEHVLDVRNDEEWNNGHLDQAVNIPHGKLLNENIPFNKEDKIYVHCQSGVRSSIAVGILESKGFENVVNIREGYQDFPESLK | 4 | –
2 | C201S CstB, full-length (enzyme) MFFKQFYDNHLSQASYLVGCQRTGEAIIIDPVRDLSKYIEVADSEGLTITQATETHIHADFASGIRDVAKRLNANIYVSGEGEDALGYKNMPSKTQFVKHGDIIQVGNVKLEVLHTPGHTPESISFLLTDLGGGSSVPMGLFSGDFIFVGDIGRPDLLEKSVQIKGSTEISAKQMYESVQNIKNLPDYVQIWPGHGAGSPSGKALGAIPISTIGYEKINNWAFNEIDETKFIESLTSNQPAPPHHFAQMKQVNQFGMNLYQSYDVYPSLDNKRVAFDLRSKEAFHGGHTKGTINIPYNKNFINQIGWYLDFEKDIDLIGDKSTVEKAKHTLQLIGFDKVAGYRLPKSGISTQSVHSADMTGKEEHVLDVRNDEEWNNGHLDQAVNIPHGKLLNENIPFNKEDKIYVHCQSGVRSSIAVGILESKGFENVVNIREGYQDFPESLK | – | 4
3 | CstB^Rhod (isolated C-terminal rhodanese domain of CstB, residues 347-444) (domain or fragment, Staphylococcus aureus strain Newman, UniProt G5ELA4 347-444, looked up) SGISTQSVHSADMTGKEEHVLDVRNDEEWNNGHLDQAVNIPHGKLLNENIPFNKEDKIYVHCQSGVRSSIAVGILESKGFENVVNIREGYQDFPESLK | – | ~3

Source: paper PMC4874178 (Biochemistry, 2015)
